Source: PMC8476798, “SLURP-1 Controls Growth and Migration of Lung Adenocarcinoma Cells, Forming a Complex With α7-nAChR and PDGFR/EGFR Heterodimer” (Frontiers in Cell and Developmental Biology, 2021)

Experiments:
[1] = target: nicotinic acetylcholine receptor of α7 type (α7-nAChR) (human (endogenous in A549)) (UniProt P36544); conditions: scale: % of viable cells relative to the control
[2] = target: nicotinic acetylcholine receptor of α7 type (α7-nAChR) (human (endogenous in A549)) (UniProt P36544)
[3] = target: nicotinic acetylcholine receptor of α7 type (α7-nAChR) (human (endogenous in A549)) (UniProt P36544); remark: listed apart in the source
[4] = target: nicotinic acetylcholine receptor of α7 type (α7-nAChR) (human (endogenous in A549)) (UniProt P36544); remark: listed apart in the source
[5] = target: nicotinic acetylcholine receptor of α7 type (α7-nAChR) (human (endogenous in A549), UniProt P36544 23-502); assay: cell-based or functional assay
Chain of nicotinic acetylcholine receptor of α7 type (α7-nAChR) (P36544 23-502): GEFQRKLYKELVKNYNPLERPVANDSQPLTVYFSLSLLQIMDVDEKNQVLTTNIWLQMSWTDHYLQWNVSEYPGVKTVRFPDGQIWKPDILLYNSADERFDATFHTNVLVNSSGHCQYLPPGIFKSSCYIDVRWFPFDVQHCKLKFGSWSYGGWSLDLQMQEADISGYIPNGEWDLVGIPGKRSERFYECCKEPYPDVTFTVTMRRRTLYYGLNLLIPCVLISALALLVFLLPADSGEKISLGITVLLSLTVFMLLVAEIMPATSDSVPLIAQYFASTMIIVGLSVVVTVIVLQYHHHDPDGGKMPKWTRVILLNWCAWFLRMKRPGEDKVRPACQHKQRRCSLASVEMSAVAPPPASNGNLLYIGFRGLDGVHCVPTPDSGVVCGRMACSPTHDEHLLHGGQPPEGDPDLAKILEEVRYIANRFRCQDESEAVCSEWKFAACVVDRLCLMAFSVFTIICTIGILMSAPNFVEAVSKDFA

Chain of nicotinic acetylcholine receptor of α7 type (α7-nAChR) (human (endogenous in A549)) (P36544 23-502): as above

With chimeric protein NTII/SL-1(I) as the molecule, how does the antiproliferative activity in A549 cells, WST-1 test, 48 h with 1 μM protein, % of viable cells relative to the control [1] read?
Its antiproliferative activity in A549 cells, WST-1 test, 48 h with 1 μM protein, % of viable cells relative to the control is 70.

“synthetic peptide “loop III” with the sequence of loop III of SLURP-1” was tested. Which IC50 of inhibition of ACh-evoked currents at human α7-nAChRs expressed in X. laevis oocytes (two-electrode voltage clamp, 100 μM ACh) [2] did it give?
The IC50 of inhibition of ACh-evoked currents at human α7-nAChRs expressed in X. laevis oocytes (two-electrode voltage clamp, 100 μM ACh) was greater than 250000 nM.

Which EC50 of the inhibition of A549 cell migration, scratch assay (control cells without knock-down) [3] does the source give for “synthetic peptide “loop I” mimicking loop I of SLURP-1” here?
Its EC50 of the inhibition of A549 cell migration, scratch assay (control cells without knock-down) is 226 nM.

And the EC50 of the decrease of A549 cell viability, WST-1 test, 48 h [4]?
The EC50 of the decrease of A549 cell viability, WST-1 test, 48 h was 1800 nM.

And the IC50 of inhibition of ACh-evoked currents at human α7-nAChRs expressed in X. laevis oocytes (two-electrode voltage clamp, 100 μM ACh) [2]?
Its IC50 of inhibition of ACh-evoked currents at human α7-nAChRs expressed in X. laevis oocytes (two-electrode voltage clamp, 100 μM ACh) is 74000 nM.

B1: recombinant analogue of human SLURP-1 (rSLURP-1) (natural protein, UniProt P55000 23-103, looked up)
chain: LKCYTCKEPMTSASCRTITRCKPEDTACMTTLVTVEAEYPFNQSPVVTRSCSSSCVATDPDSIGAAHLIFCCFRDLCNSEL
Which results are given for B1?
EC50 of the decrease of A549 cell viability, WST-1 test, 48 h [5]: 10.1 nM; IC50 of inhibition of ACh-evoked currents at human α7-nAChRs expressed in X. laevis oocytes (two-electrode voltage clamp, 100 μM ACh) [5]: 12000 nM
